Test results taken from the supplement of paper PMC6757056.
± gives the standard deviation of the averaged measurements.

B1: library; a variant is named by its letters at N, in order (parent)
chain: GCUGUCACCGAGAAACUGUGAAGUAUAUCUUAAACCUGGGCACUUAAAAGAUAUAUGGAGUUAGUAGUGCAACCUGCUCGGUCUGAUGAGUCCNNNNNNGGACGAAACAGC

Assays:
cyclic di-GMP [1] = variants of: B1; assay: FACS-Seq fitted mean relative fluorescence mCherry/BFP without ligand (log10 relative fluorescence); HEK293T; ligand: cyclic di-GMP (c-di-GMP-II aptamer); higher = higher reporter protein expression; conditions: ligand present: no
How it was run: (§1)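 To measure fluorescence, a normal distribution was fitted to read counts across sorted bins. The reporter libraries were HEK293T cells transduced by lentivirus with mCherry under ribozyme-switch control and an EF1α-BFP marker, enriched and then kept with or without ligand for 48 h. Sorting used 6 mCherry/BFP bins, and bin genomic DNA was PCR-amplified and sequenced on MiSeq. Fitted means of log10(mCherry/BFP) were scaled to five spiked-in control ribozymes.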

cyclic di-GMP [2] = variants of: B1; assay: normalized RNA/DNA level without ligand (relative to sTRSVctl = 100) (log10 (% of sTRSVctl)); HEK293T; ligand: cyclic di-GMP (c-di-GMP-II aptamer); higher = less ribozyme self-cleavage, higher mRNA level; conditions: reporter: mCherry (pCS4076), ligand present: no
Method: (§2)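 Hammerhead (sTRSV) ribozyme switch libraries with a ligand aptamer grafted on stem I and a randomized N4-6 loop II, cloned into the 3' UTR of mCherry and transiently transfected into HEK293T cells; RNA-Seq 72 h post transfection with ligand added 1 h before transfection; RNA read count / plasmid DNA read count normalized to the non-cleaving sTRSVctl (x100), log10; sequences with >100 DNA reads. FACS-Seq: lentiviral library sorted into 6 bins after 48 h ligand, log-normal fit mean of mCherry/BFP scaled to controls. Printed sequences are partial switch sequences.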

cyclic di-GMP [3] = variants of: B1; assay: FACS-Seq fitted mean relative fluorescence mCherry/BFP with ligand (log10 relative fluorescence); HEK293T; ligand: cyclic di-GMP (c-di-GMP-II aptamer); ligand concentration (+) FACS-Seq: 1 mM; higher = higher reporter protein expression; conditions: ligand present: yes
How it was run: as §1

cyclic di-GMP [4] = variants of: B1; assay: normalized RNA/DNA level with ligand (relative to sTRSVctl = 100) (log10 (% of sTRSVctl)); HEK293T; ligand: cyclic di-GMP (c-di-GMP-II aptamer); ligand concentration (+) RNA-Seq: 1 mM; higher = less ribozyme self-cleavage, higher mRNA level; conditions: reporter: mCherry (pCS4076), ligand present: yes
Method: as §2

GCUGUCACCGAGAAACUGUGAAGUAUAUCUUAAACCUGGGCACUUAAAAGAUAUAUGGAGUUAGUAGUGCAACCUGCUCGGUCUGAUGAGUCCGCGUGUGGACGAAACAGC [GCGUGU]
FACS-Seq fitted mean (log10) (cyclic di-GMP [1]): -0.15 ± 0.054 | normalized RNA/DNA level without ligand (log10) (cyclic di-GMP [2]): 1.5 ± 0.085 | FACS-Seq fitted mean (log10) (cyclic di-GMP [3]): 0.114 ± 0.056 | normalized RNA/DNA level with ligand (log10) (cyclic di-GMP [4]): 1.75 ± 0.083

GCUGUCACCGAGAAACUGUGAAGUAUAUCUUAAACCUGGGCACUUAAAAGAUAUAUGGAGUUAGUAGUGCAACCUGCUCGGUCUGAUGAGUCCUAACGGGGACGAAACAGC [UAACGG]
FACS-Seq fitted mean (log10) (cyclic di-GMP [1]): -0.162 ± 0.15 | normalized RNA/DNA level without ligand (log10) (cyclic di-GMP [2]): 1.6716 ± 2.5e-05 | FACS-Seq fitted mean (log10) (cyclic di-GMP [3]): 0.21 ± 0.0062 | normalized RNA/DNA level with ligand (log10) (cyclic di-GMP [4]): 1.82 ± 0.1

GCUGUCACCGAGAAACUGUGAAGUAUAUCUUAAACCUGGGCACUUAAAAGAUAUAUGGAGUUAGUAGUGCAACCUGCUCGGUCUGAUGAGUCCGCAUACGGACGAAACAGC [GCAUAC]
FACS-Seq fitted mean (log10) (cyclic di-GMP [1]): -0.0759 ± 0.13 | normalized RNA/DNA level without ligand (log10) (cyclic di-GMP [2]): 1.42 ± 0.19 | FACS-Seq fitted mean (log10) (cyclic di-GMP [3]): 0.23 ± 0.036 | normalized RNA/DNA level with ligand (log10) (cyclic di-GMP [4]): 1.6 ± 0.072

GCUGUCACCGAGAAACUGUGAAGUAUAUCUUAAACCUGGGCACUUAAAAGAUAUAUGGAGUUAGUAGUGCAACCUGCUCGGUCUGAUGAGUCCAGACUAGGACGAAACAGC [AGACUA]
FACS-Seq fitted mean (log10) (cyclic di-GMP [1]): -0.122 ± 0.029 | normalized RNA/DNA level without ligand (log10) (cyclic di-GMP [2]): 1.55 ± 0.038 | FACS-Seq fitted mean (log10) (cyclic di-GMP [3]): 0.261 ± 0.022 | normalized RNA/DNA level with ligand (log10) (cyclic di-GMP [4]): 1.74 ± 0.14

GCUGUCACCGAGAAACUGUGAAGUAUAUCUUAAACCUGGGCACUUAAAAGAUAUAUGGAGUUAGUAGUGCAACCUGCUCGGUCUGAUGAGUCCAUCUGGGGACGAAACAGC [AUCUGG]
FACS-Seq fitted mean (log10) (cyclic di-GMP [1]): -0.899 ± 0.093 | normalized RNA/DNA level without ligand (log10) (cyclic di-GMP [2]): 1.67 ± 0.058 | FACS-Seq fitted mean (log10) (cyclic di-GMP [3]): -0.683 ± 0.046 | normalized RNA/DNA level with ligand (log10) (cyclic di-GMP [4]): 1.81 ± 0.12

GCUGUCACCGAGAAACUGUGAAGUAUAUCUUAAACCUGGGCACUUAAAAGAUAUAUGGAGUUAGUAGUGCAACCUGCUCGGUCUGAUGAGUCCCGGUGUGGACGAAACAGC [CGGUGU]
FACS-Seq fitted mean (log10) (cyclic di-GMP [1]): -0.862 ± 0.11 | normalized RNA/DNA level without ligand (log10) (cyclic di-GMP [2]): 1.68 ± 0.02 | FACS-Seq fitted mean (log10) (cyclic di-GMP [3]): -0.65 ± 0.12 | normalized RNA/DNA level with ligand (log10) (cyclic di-GMP [4]): 1.88 ± 0.14

GCUGUCACCGAGAAACUGUGAAGUAUAUCUUAAACCUGGGCACUUAAAAGAUAUAUGGAGUUAGUAGUGCAACCUGCUCGGUCUGAUGAGUCCGUAUUUGGACGAAACAGC [GUAUUU]
FACS-Seq fitted mean (log10) (cyclic di-GMP [1]): -0.574 ± 0.0067 | normalized RNA/DNA level without ligand (log10) (cyclic di-GMP [2]): 1.686 ± 0.0056 | FACS-Seq fitted mean (log10) (cyclic di-GMP [3]): -0.186 ± 0.035 | normalized RNA/DNA level with ligand (log10) (cyclic di-GMP [4]): 1.82 ± 0.085

GCUGUCACCGAGAAACUGUGAAGUAUAUCUUAAACCUGGGCACUUAAAAGAUAUAUGGAGUUAGUAGUGCAACCUGCUCGGUCUGAUGAGUCCGAAAGUGGACGAAACAGC [GAAAGU]
FACS-Seq fitted mean (log10) (cyclic di-GMP [1]): -0.387 ± 0.03 | normalized RNA/DNA level without ligand (log10) (cyclic di-GMP [2]): 1.55 ± 0.044 | FACS-Seq fitted mean (log10) (cyclic di-GMP [3]): -0.0693 ± 0.089 | normalized RNA/DNA level with ligand (log10) (cyclic di-GMP [4]): 1.71 ± 0.095

GCUGUCACCGAGAAACUGUGAAGUAUAUCUUAAACCUGGGCACUUAAAAGAUAUAUGGAGUUAGUAGUGCAACCUGCUCGGUCUGAUGAGUCCCAUGGAGGACGAAACAGC [CAUGGA]
FACS-Seq fitted mean (log10) (cyclic di-GMP [1]): -0.378 ± 0.071 | normalized RNA/DNA level without ligand (log10) (cyclic di-GMP [2]): 1.52 ± 0.052 | FACS-Seq fitted mean (log10) (cyclic di-GMP [3]): -0.00583 ± 0.069 | normalized RNA/DNA level with ligand (log10) (cyclic di-GMP [4]): 1.74 ± 0.077

GCUGUCACCGAGAAACUGUGAAGUAUAUCUUAAACCUGGGCACUUAAAAGAUAUAUGGAGUUAGUAGUGCAACCUGCUCGGUCUGAUGAGUCCUGAUAUGGACGAAACAGC [UGAUAU]
FACS-Seq fitted mean (log10) (cyclic di-GMP [1]): -0.406 ± 0.087 | normalized RNA/DNA level without ligand (log10) (cyclic di-GMP [2]): 1.649 ± 0.0089 | FACS-Seq fitted mean (log10) (cyclic di-GMP [3]): -0.0482 ± 0.1 | normalized RNA/DNA level with ligand (log10) (cyclic di-GMP [4]): 1.82 ± 0.08

GCUGUCACCGAGAAACUGUGAAGUAUAUCUUAAACCUGGGCACUUAAAAGAUAUAUGGAGUUAGUAGUGCAACCUGCUCGGUCUGAUGAGUCCGGCGAGGGACGAAACAGC [GGCGAG]
FACS-Seq fitted mean (log10) (cyclic di-GMP [1]): -0.757 ± 0.036 | normalized RNA/DNA level without ligand (log10) (cyclic di-GMP [2]): 1.5556 ± 0.00075 | FACS-Seq fitted mean (log10) (cyclic di-GMP [3]): -0.498 ± 0.0053 | normalized RNA/DNA level with ligand (log10) (cyclic di-GMP [4]): 1.68 ± 0.14

GCUGUCACCGAGAAACUGUGAAGUAUAUCUUAAACCUGGGCACUUAAAAGAUAUAUGGAGUUAGUAGUGCAACCUGCUCGGUCUGAUGAGUCCAGUGGGGGACGAAACAGC [AGUGGG]
FACS-Seq fitted mean (log10) (cyclic di-GMP [1]): -0.534 ± 0.12 | normalized RNA/DNA level without ligand (log10) (cyclic di-GMP [2]): 1.69 ± 0.069 | FACS-Seq fitted mean (log10) (cyclic di-GMP [3]): -0.365 ± 0.059 | normalized RNA/DNA level with ligand (log10) (cyclic di-GMP [4]): 1.8 ± 0.062

GCUGUCACCGAGAAACUGUGAAGUAUAUCUUAAACCUGGGCACUUAAAAGAUAUAUGGAGUUAGUAGUGCAACCUGCUCGGUCUGAUGAGUCCAUAAUUGGACGAAACAGC [AUAAUU]
FACS-Seq fitted mean (log10) (cyclic di-GMP [1]): -0.558 ± 0.032 | normalized RNA/DNA level without ligand (log10) (cyclic di-GMP [2]): 1.55 ± 0.027 | FACS-Seq fitted mean (log10) (cyclic di-GMP [3]): -0.213 ± 0.038 | normalized RNA/DNA level with ligand (log10) (cyclic di-GMP [4]): 1.72 ± 0.087
